# In patent US20260077065A1, “Compositions and Methods for Assessing Kinase Activity” (The Board of Trustees of the Leland Stanford Junior …, priority 2022, published 2026):
# Columns and labels:
# [1] = biological target: SmBiT(ΔC3) (NanoBiT small fragment truncated by 3 amino acids at the C-terminus); experiment: cell-based or functional assay
# [2] = biological target: ERK substrate (Cdc25C substrate sequence with second phosphorylation site, V-3S); experiment: cell-based or functional assay
substance,measurement,setting,value
"LgBiT (NanoBiT large fragment of NanoLuc), ΔN2 (enzyme)",response (luminescence induction by ERK inhibition) of the reporter with truncated SmBiT,[1],300%
WW phospho-binding domain with F25A mutation (from UniProt Q13526 1-54),induction of luminescence by Vx-11e (bKiMBI),[2],> 10 fold
WW phospho-binding domain (proline-directed WW phospho-binding domain from Pin1) (from UniProt Q13526 1-54),induction of luminescence (ΔC3 V-3S),[2],8.8 fold
